Data from article PMC5486021, “Biochemical and Computational Insights on a Novel Acid-Resistant and Thermal-Stable Glucose 1-Dehydrogenase” (International Journal of Molecular Sciences, 2017).
One block for each compound: values may come before it.

Assays:
BzGDH = target: T1, BzGDH (Bacillus sp. (in: firmicutes), UniProt A0A068FPP9); experiment: NADH absorbance at […] nm, nonlinear Michaelis-Menten fit; assay type: biochemical, Bacillus sp. ZJ; settings: 100 mM sodium phosphate pH 8.0, 25 °C; 1 mM NAD; glucose 1-200 mM; kcat per subunit
T1 construct: full length, 261 residues (28 kDa predicted, 30 kDa SDS-PAGE, 120 kDa native), pET28a (NdeI/BamHI) in E. coli BL21(DE3), Ni-NTA purified, His tag removal not mentioned; N-terminus from primer MYSDLA

[1] = system: T2, NC(=O)c1ccc[n+]([C@@H]2O[C@H](COP(=O)(O)OP(=O)(O)OC[C@H]3O[C@@H](n4cnc5c(N)ncnc54)[C@H](OP(=O)(O)O)[C@@H]3O)[C@@H](O)[C@H]2O)c1; experiment: purified protein; assay type: biochemical, Bacillus sp. ZJ; settings: 100 mM sodium phosphate pH 8.0, 25 °C, glucose given as 200 µM (standard assay 200 mM), NADP 0.01-0.2 mM, kcat per subunit, varied: cofactor
T2 construct: full length, 261 residues (28 kDa predicted, 30 kDa SDS-PAGE, 120 kDa native), pET28a (NdeI/BamHI) in E. coli BL21(DE3), Ni-NTA purified, His tag removal not mentioned; N-terminus from primer MYSDLA

[2] = system: T3, NC(=O)c1ccc[n+]([C@@H]2O[C@H](COP(=O)(O)OP(=O)(O)OC[C@H]3O[C@@H](n4cnc5c(N)ncnc54)[C@H](O)[C@@H]3O)[C@@H](O)[C@H]2O)c1; experiment: purified protein; assay type: biochemical, Bacillus sp. ZJ; settings: 100 mM sodium phosphate pH 8.0, 25 °C, glucose given as 200 µM (standard assay 200 mM), NAD 0.01-0.2 mM, kcat per subunit, varied: cofactor
T3 construct: full length, 261 residues (28 kDa predicted, 30 kDa SDS-PAGE, 120 kDa native), pET28a (NdeI/BamHI) in E. coli BL21(DE3), Ni-NTA purified, His tag removal not mentioned; N-terminus from primer MYSDLA

[3] = target: NAD(P)-dependent glucose 1-dehydrogenase from Bacillus sp. ZJ (Bacillus sp. ZJ); experiment: SEC; gel filtration on a Zorbax Bio-series GF-450 column; standards lysozyme (14.3 kDa), chicken ovalbumin (45 kDa), bovine serum albumin fraction V (67 kDa), goat IgG (150 kDa); native mass estimated 120 kDa against 30 kDa on SDS-PAGE

Km (BzGDH): 17.1 ± 0.946 mM
Compound: OC[C@H]1OC(O)[C@H](O)[C@@H](O)[C@@H]1O (stereo partly drawn) [D-glucose]

Compound: BzGDH (Bacillus sp. (in: firmicutes))
Km [1]: 0.404 ± 0.088 mM
kcat [1]: 74 ± 2.68 s⁻¹
kcat/Km [1]: 183000 M⁻¹ s⁻¹
Km [2]: 0.072 ± 0.009 mM
kcat [2]: 84.5 ± 2.17 s⁻¹
kcat/Km [2]: 1.17e+06 M⁻¹ s⁻¹

stoichiometry N [3]: 4
Compound: NAD(P)-dependent glucose 1-dehydrogenase from Bacillus sp. ZJ (enzyme)
